B1: CIgG4D2A1(G4S)2 (Fc fusion)
chain 1: GPPCPPCPAPEFLGGPSVFLFPPKPKDTLMISRTPEVTCVVVDVSQEDPEVQFNWYVDGVEVHNAKTKPREEQFNSTYRVVSVLTVLHQDWLNGKEYKCKVSNKGLPSSIEKTISKAKGQPREPQVYTLPPCQEEMTKNQVSLWCLVKGFYPSDIAVEWESNGQPENNYKTTPPVLDSDGSFFLYSRLTVDKSRWQEGNVFSCSVMHEALHNHYTQKSLSLSLGKGGGGSGGGGSDVQLQESGGGLVEAGGSLRLSCVASGRTFSGWSMGWFRQAPGKEREFVAAISWVGSWIGGTVYSNSVKGRFTISRDNARTTVYLQMNSLKPEDTAVYFCAAANSETPRIFASEYDYWGQGTQVTVS
chain 2: GPPCPPCPAPEFLGGPSVFLFPPKPKDTLMISRTPEVTCVVVDVSQEDPEVQFNWYVDGVEVHNAKTKPREEQFNSTYRVVSVLTVLHQDWLNGKEYKCKVSNKGLPSSIEKTISKAKGQPREPQVCTLPPSQEEMTKNQVSLSCAVKGFYPSDIAVEWESNGQPENNYKTTPPVLDSDGSFFLVSRLTVDKSRWQEGNVFSCSVMHEALHNHYTQKSLSLSLGKGGGGSGGGGSEVQLLESGGGLVQPGGSLRLSCAASGFTFGNYDMAWVRQAPGKRPEWVSSIDTGGDITHYADSVKGRFTISRDNAKNTLYLQMNSLRPEDTAVYWCATDEEYALGPNEFDYYGQGTLVTVSS
B2: CIgG4D2A1(G4S)3 (Fc fusion)
chain 1: GPPCPPCPAPEFLGGPSVFLFPPKPKDTLMISRTPEVTCVVVDVSQEDPEVQFNWYVDGVEVHNAKTKPREEQFNSTYRVVSVLTVLHQDWLNGKEYKCKVSNKGLPSSIEKTISKAKGQPREPQVYTLPPCQEEMTKNQVSLWCLVKGFYPSDIAVEWESNGQPENNYKTTPPVLDSDGSFFLYSRLTVDKSRWQEGNVFSCSVMHEALHNHYTQKSLSLSLGKGGGGSGGGGSGGGGSDVQLQESGGGLVEAGGSLRLSCVASGRTFSGWSMGWFRQAPGKEREFVAAISWVGSWIGGTVYSNSVKGRFTISRDNARTTVYLQMNSLKPEDTAVYFCAAANSETPRIFASEYDYWGQGTQVTVS
chain 2: GPPCPPCPAPEFLGGPSVFLFPPKPKDTLMISRTPEVTCVVVDVSQEDPEVQFNWYVDGVEVHNAKTKPREEQFNSTYRVVSVLTVLHQDWLNGKEYKCKVSNKGLPSSIEKTISKAKGQPREPQVCTLPPSQEEMTKNQVSLSCAVKGFYPSDIAVEWESNGQPENNYKTTPPVLDSDGSFFLVSRLTVDKSRWQEGNVFSCSVMHEALHNHYTQKSLSLSLGKGGGGSGGGGSGGGGSEVQLLESGGGLVQPGGSLRLSCAASGFTFGNYDMAWVRQAPGKRPEWVSSIDTGGDITHYADSVKGRFTISRDNAKNTLYLQMNSLRPEDTAVYWCATDEEYALGPNEFDYYGQGTLVTVSS
B3: NIgG4E1A1(RS) (Fc fusion)
chain 1: DVQLQESGGGLVQAGGSLRLSCLASGRTFTTTSGYNMGWFRQAPGKEREFVAGIKWVSGSNRAYAESVKGRFTISRDNAKNTVYLQMNSLKPEDTAVYYCAAATGQSYVPIREYEYVYWGQGTQVTVSRSGPPCPPCPAPEFLGGPSVFLFPPKPKDTLMISRTPEVTCVVVDVSQEDPEVQFNWYVDGVEVHNAKTKPREEQFNSTYRVVSVLTVLHQDWLNGKEYKCKVSNKGLPSSIEKTISKAKGQPREPQVYTLPPCQEEMTKNQVSLWCLVKGFYPSDIAVEWESNGQPENNYKTTPPVLDSDGSFFLYSRLTVDKSRWQEGNVFSCSVMHEALHNHYTQKSLSLSLGK
chain 2: EVQLLESGGGLVQPGGSLRLSCAASGFTFGNYDMAWVRQAPGKRPEWVSSIDTGGDITHYADSVKGRFTISRDNAKNTLYLQMNSLRPEDTAVYWCATDEEYALGPNEFDYYGQGTLVTVSSRSGPPCPPCPAPEFLGGPSVFLFPPKPKDTLMISRTPEVTCVVVDVSQEDPEVQFNWYVDGVEVHNAKTKPREEQFNSTYRVVSVLTVLHQDWLNGKEYKCKVSNKGLPSSIEKTISKAKGQPREPQVCTLPPSQEEMTKNQVSLSCAVKGFYPSDIAVEWESNGQPENNYKTTPPVLDSDGSFFLVSRLTVDKSRWQEGNVFSCSVMHEALHNHYTQKSLSLSLGK
B4: NIgG4E1A1(G4S)1 (Fc fusion)
chain 1: DVQLQESGGGLVQAGGSLRLSCLASGRTFTTTSGYNMGWFRQAPGKEREFVAGIKWVSGSNRAYAESVKGRFTISRDNAKNTVYLQMNSLKPEDTAVYYCAAATGQSYVPIREYEYVYWGQGTQVTVSGGGGSGPPCPPCPAPEFLGGPSVFLFPPKPKDTLMISRTPEVTCVVVDVSQEDPEVQFNWYVDGVEVHNAKTKPREEQFNSTYRVVSVLTVLHQDWLNGKEYKCKVSNKGLPSSIEKTISKAKGQPREPQVYTLPPCQEEMTKNQVSLWCLVKGFYPSDIAVEWESNGQPENNYKTTPPVLDSDGSFFLYSRLTVDKSRWQEGNVFSCSVMHEALHNHYTQKSLSLSLGK
chain 2: EVQLLESGGGLVQPGGSLRLSCAASGFTFGNYDMAWVRQAPGKRPEWVSSIDTGGDITHYADSVKGRFTISRDNAKNTLYLQMNSLRPEDTAVYWCATDEEYALGPNEFDYYGQGTLVTVSSGGGGSGPPCPPCPAPEFLGGPSVFLFPPKPKDTLMISRTPEVTCVVVDVSQEDPEVQFNWYVDGVEVHNAKTKPREEQFNSTYRVVSVLTVLHQDWLNGKEYKCKVSNKGLPSSIEKTISKAKGQPREPQVCTLPPSQEEMTKNQVSLSCAVKGFYPSDIAVEWESNGQPENNYKTTPPVLDSDGSFFLVSRLTVDKSRWQEGNVFSCSVMHEALHNHYTQKSLSLSLGK
B5: NIgG4E1A1(G4S)2 (Fc fusion)
chain 1: DVQLQESGGGLVQAGGSLRLSCLASGRTFTTTSGYNMGWFRQAPGKEREFVAGIKWVSGSNRAYAESVKGRFTISRDNAKNTVYLQMNSLKPEDTAVYYCAAATGQSYVPIREYEYVYWGQGTQVTVSGGGGSGGGGSGPPCPPCPAPEFLGGPSVFLFPPKPKDTLMISRTPEVTCVVVDVSQEDPEVQFNWYVDGVEVHNAKTKPREEQFNSTYRVVSVLTVLHQDWLNGKEYKCKVSNKGLPSSIEKTISKAKGQPREPQVYTLPPCQEEMTKNQVSLWCLVKGFYPSDIAVEWESNGQPENNYKTTPPVLDSDGSFFLYSRLTVDKSRWQEGNVFSCSVMHEALHNHYTQKSLSLSLGK
chain 2: EVQLLESGGGLVQPGGSLRLSCAASGFTFGNYDMAWVRQAPGKRPEWVSSIDTGGDITHYADSVKGRFTISRDNAKNTLYLQMNSLRPEDTAVYWCATDEEYALGPNEFDYYGQGTLVTVSSGGGGSGGGGSGPPCPPCPAPEFLGGPSVFLFPPKPKDTLMISRTPEVTCVVVDVSQEDPEVQFNWYVDGVEVHNAKTKPREEQFNSTYRVVSVLTVLHQDWLNGKEYKCKVSNKGLPSSIEKTISKAKGQPREPQVCTLPPSQEEMTKNQVSLSCAVKGFYPSDIAVEWESNGQPENNYKTTPPVLDSDGSFFLVSRLTVDKSRWQEGNVFSCSVMHEALHNHYTQKSLSLSLGK
B6: NIgG4E1A1(G4S)3 (Fc fusion)
chain 1: DVQLQESGGGLVQAGGSLRLSCLASGRTFTTTSGYNMGWFRQAPGKEREFVAGIKWVSGSNRAYAESVKGRFTISRDNAKNTVYLQMNSLKPEDTAVYYCAAATGQSYVPIREYEYVYWGQGTQVTVSGGGGSGGGGSGGGGSGPPCPPCPAPEFLGGPSVFLFPPKPKDTLMISRTPEVTCVVVDVSQEDPEVQFNWYVDGVEVHNAKTKPREEQFNSTYRVVSVLTVLHQDWLNGKEYKCKVSNKGLPSSIEKTISKAKGQPREPQVYTLPPCQEEMTKNQVSLWCLVKGFYPSDIAVEWESNGQPENNYKTTPPVLDSDGSFFLYSRLTVDKSRWQEGNVFSCSVMHEALHNHYTQKSLSLSLGK
chain 2: EVQLLESGGGLVQPGGSLRLSCAASGFTFGNYDMAWVRQAPGKRPEWVSSIDTGGDITHYADSVKGRFTISRDNAKNTLYLQMNSLRPEDTAVYWCATDEEYALGPNEFDYYGQGTLVTVSSGGGGSGGGGSGGGGSGPPCPPCPAPEFLGGPSVFLFPPKPKDTLMISRTPEVTCVVVDVSQEDPEVQFNWYVDGVEVHNAKTKPREEQFNSTYRVVSVLTVLHQDWLNGKEYKCKVSNKGLPSSIEKTISKAKGQPREPQVCTLPPSQEEMTKNQVSLSCAVKGFYPSDIAVEWESNGQPENNYKTTPPVLDSDGSFFLVSRLTVDKSRWQEGNVFSCSVMHEALHNHYTQKSLSLSLGK

molecular target: mixture of three Der p 2 specific recombinant human IgE clones H10, H12, P4E (human) (UniProt P01854); assay: RBL-SX38 IgE displacement, FACS
Sequence (P01854 other isoform, or with tags, fused parts or gaps): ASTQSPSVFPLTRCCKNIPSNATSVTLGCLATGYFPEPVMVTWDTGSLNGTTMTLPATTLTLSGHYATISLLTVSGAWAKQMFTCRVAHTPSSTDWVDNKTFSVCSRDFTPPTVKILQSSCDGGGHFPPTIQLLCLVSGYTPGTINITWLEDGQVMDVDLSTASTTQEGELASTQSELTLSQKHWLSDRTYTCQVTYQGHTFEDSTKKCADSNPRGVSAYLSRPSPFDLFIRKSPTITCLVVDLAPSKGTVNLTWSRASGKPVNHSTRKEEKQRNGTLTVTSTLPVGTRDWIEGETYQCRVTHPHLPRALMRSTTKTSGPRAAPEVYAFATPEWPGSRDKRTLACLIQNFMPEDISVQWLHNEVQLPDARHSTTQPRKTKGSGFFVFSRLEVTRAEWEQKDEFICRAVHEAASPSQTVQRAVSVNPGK

Binder	EC50	Max effect/effect 1 µM
B1	39 nM	99%
B2	28.8 nM	99%
B3	8.7 nM	97%
B4	7.1 nM	96%
B5	4.8 nM	94%
B6	3.7 nM	98%

Reference: US20250171562A1
